Experiment [1] deals with full-length beta-Catenin (Uniprot ID P35222) (Homo sapiens (Human)) (UniProt P35222). In words: fluorescence polarization competition; full-length beta-catenin, competitor 5FAM-TCF4(10-53) probe. A general note: In fluorescence polarisation assays a small probe gives low polarisation when free and higher when bound to something large.
Target sequence in this assay (P35222 2-781 limits assumed): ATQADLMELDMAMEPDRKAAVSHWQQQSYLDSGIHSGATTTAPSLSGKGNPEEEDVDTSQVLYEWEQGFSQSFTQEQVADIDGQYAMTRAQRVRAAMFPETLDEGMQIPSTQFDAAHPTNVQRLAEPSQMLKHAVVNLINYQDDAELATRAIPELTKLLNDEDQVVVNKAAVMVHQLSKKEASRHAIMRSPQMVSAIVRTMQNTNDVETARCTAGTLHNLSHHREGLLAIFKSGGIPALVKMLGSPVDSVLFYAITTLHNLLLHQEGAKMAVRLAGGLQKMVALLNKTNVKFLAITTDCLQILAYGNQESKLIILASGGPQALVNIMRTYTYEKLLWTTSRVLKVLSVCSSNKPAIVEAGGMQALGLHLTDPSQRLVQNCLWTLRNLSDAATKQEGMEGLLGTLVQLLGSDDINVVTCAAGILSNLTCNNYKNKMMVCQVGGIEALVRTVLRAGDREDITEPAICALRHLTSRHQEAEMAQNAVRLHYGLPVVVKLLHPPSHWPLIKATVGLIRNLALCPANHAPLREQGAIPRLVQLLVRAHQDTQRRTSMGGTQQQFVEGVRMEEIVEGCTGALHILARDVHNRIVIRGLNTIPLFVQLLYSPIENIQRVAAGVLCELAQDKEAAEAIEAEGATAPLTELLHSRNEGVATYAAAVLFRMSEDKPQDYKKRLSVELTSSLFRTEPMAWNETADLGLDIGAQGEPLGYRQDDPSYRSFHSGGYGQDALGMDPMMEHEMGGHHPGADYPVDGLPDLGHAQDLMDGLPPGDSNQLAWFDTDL
Experiment [2] shares this target. In words: fluorescence polarization competition; peptide displaces 5FAM-TCF4(10-53) from full-length beta-catenin.
Target sequence in this assay (P35222 2-781 limits assumed): as above
Experiment [3] shares this target. In words: fluorescence polarization competition; displacement of 5FAM-TCF4(10-53) from full-length beta-catenin.
Target sequence in this assay (P35222 whole entry): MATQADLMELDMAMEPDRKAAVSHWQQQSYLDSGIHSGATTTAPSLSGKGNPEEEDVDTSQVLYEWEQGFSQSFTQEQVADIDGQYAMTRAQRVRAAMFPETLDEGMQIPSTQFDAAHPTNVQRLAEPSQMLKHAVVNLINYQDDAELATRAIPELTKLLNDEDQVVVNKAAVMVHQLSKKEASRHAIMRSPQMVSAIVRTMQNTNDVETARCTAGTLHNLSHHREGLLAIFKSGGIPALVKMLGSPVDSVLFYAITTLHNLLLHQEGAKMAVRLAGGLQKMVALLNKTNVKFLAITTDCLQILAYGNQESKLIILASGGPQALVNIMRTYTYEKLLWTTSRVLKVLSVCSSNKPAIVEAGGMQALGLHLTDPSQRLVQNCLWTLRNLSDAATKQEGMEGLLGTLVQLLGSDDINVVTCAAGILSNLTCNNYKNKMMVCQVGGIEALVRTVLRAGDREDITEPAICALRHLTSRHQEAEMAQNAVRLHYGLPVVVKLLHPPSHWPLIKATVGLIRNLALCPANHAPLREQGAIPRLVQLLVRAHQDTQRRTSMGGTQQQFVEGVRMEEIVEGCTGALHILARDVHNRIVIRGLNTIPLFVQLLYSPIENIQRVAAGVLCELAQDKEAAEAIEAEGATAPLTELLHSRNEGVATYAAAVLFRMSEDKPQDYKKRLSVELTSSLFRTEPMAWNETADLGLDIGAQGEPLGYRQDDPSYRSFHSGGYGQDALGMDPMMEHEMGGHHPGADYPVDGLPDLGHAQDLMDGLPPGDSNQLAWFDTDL
Experiment [4] shares this target. In words: fluorescence polarization competition; 10 nM full-length beta-catenin with 10 nM 5FAM-TCF4 (residues 10-53) probe as competitor.
Target sequence in this assay (P35222 2-781 limits assumed): as the sequence (P35222 2-781 limits assumed) above
Experiment [5] shares this target. In words: fluorescence polarization competition; 10 nM full-length beta-catenin + 10 nM 5FAM-TCF4(10-53) probe, peptide titrated.
Target sequence in this assay (P35222 2-781 limits assumed): as above
For experiment [6] the target is unchanged. In words: fluorescence polarization competition; peptide titrated against 10 nM full-length beta-catenin + 10 nM 5FAM-TCF4(10-53) probe.
Target sequence in this assay (P35222 whole entry): as the sequence (P35222 whole entry) above
For experiment [7] the target is unchanged. In words: fluorescence polarization competition: peptide titrated against 10 nM full-length beta-catenin + 10 nM 5FAM-TCF4(10-53) probe.
Target sequence in this assay (P35222 2-781 limits assumed): as the sequence (P35222 2-781 limits assumed) above
For experiment [8] the target is unchanged. In words: fluorescence polarization competition; 10 nM full-length beta-catenin with 10 nM 5FAM-TCF4(10-53) probe as competitor.
Target sequence in this assay (P35222 2-781 limits assumed): as above
Experiment [9] shares this target. In words: fluorescence polarization competition; full-length beta-catenin; competitor displaced: 5FAM-TCF4 10-53.

Starred links: 1 amine or outer side, 2 acyl side, 3 side chain; linkers in the order of their positions; H or OH if unused. Positions of bridges follow the written chain, without caps; N, C: chain ends. Non-standard residues stand in square brackets, D forms with d. Primed or numbered codes have the meaning given here. PyrS2″ = (S)-3-amino-1-((pent-4-en-1-yloxy)carbonyl)pyrrolidine-3-carboxylic acid (stapling residue), C=CCCCOC(=O)N1CC[C@@](N[*:1])(C(=O)[*:2])C1; B5(16) = 2-amino-2-(pent-4-en-1-yl)hept-6-enoic acid = 2,2-bis(4-pentenyl)glycine (stitching residue), C=CCCCC(CCCC=C)(N[*:1])C(=O)[*:2]; B5(4) = 2,2-bis(4-pentenyl)glycine = 2-amino-2-(pent-4-en-1-yl)hept-6-enoic acid (stitching residue), C=CCCCC(CCCC=C)(N[*:1])C(=O)[*:2]; B5(5) = 2,2-bis(4-pentenyl)glycine, 2-amino-2-(pent-4-en-1-yl)hept-6-enoic acid (stitching residue), C=CCCCC(CCCC=C)(N[*:1])C(=O)[*:2]; PyrS2 = (S)-3-amino-1-((pent-4-en-1-yloxy)carbonyl)pyrrolidine-3-carboxylic acid, C=CCCCOC(=O)N1CC[C@@](N[*:1])(C(=O)[*:2])C1; PyrS3 = (S)-3-amino-1-((hex-5-en-1-yloxy)carbonyl)pyrrolidine-3-carboxylic acid, C=CCCCCOC(=O)N1CC[C@@](N[*:1])(C(=O)[*:2])C1; SeN = (S)-5-(((allyloxy)carbonyl)(methyl)amino)-2-amino-2-methylpentanoic acid, C=CCOC(=O)N(C)CCC[C@](C)(N[*:1])C(=O)[*:2]; B5(12) = 2-amino-2-(pent-4-en-1-yl)hept-6-enoic acid (two olefin side chains), C=CCCCC(CCCC=C)(N[*:1])C(=O)[*:2]; B5(13) = 2-amino-2-(pent-4-en-1-yl)hept-6-enoic acid (two alkene chains), C=CCCCC(CCCC=C)(N[*:1])C(=O)[*:2]; B5(3) = 2,2-bis(4-pentenyl)glycine (stitching residue), C=CCCCC(CCCC=C)(N[*:1])C(=O)[*:2]; B5 = 2-amino-2-(pent-4-en-1-yl)hept-6-enoic acid, C=CCCCC(CCCC=C)(N[*:1])C(=O)[*:2]; Ala(1H-tetrazol-5-yl) = N[C@@H](Cc1nnn[nH]1)C(=O)O; Trp(5-Cl) = N[C@@H](Cc1c[nH]c2ccc(Cl)cc12)C(=O)O; Trp(6-Cl) = N[C@@H](Cc1c[nH]c2cc(Cl)ccc12)C(=O)O; Phe(2-Cl) = N[C@@H](Cc1ccccc1Cl)C(=O)O; Phe(3-F) = N[C@@H](Cc1cccc(F)c1)C(=O)O; 1Nal = N[C@@H](Cc1cccc2ccccc12)C(=O)O; 2Nal = N[C@@H](Cc1ccc2ccccc2c1)C(=O)O; Phe(2-Me) = Cc1ccccc1C[C@H](N)C(=O)O; Bta = N[C@@H](Cc1csc2ccccc12)C(=O)O; αAllylPro = C=CC[C@@]1(C(=O)O)CCCN1; tBuAla = CC(C)(C)C[C@H](N)C(=O)O; 2Thi = N[C@@H](Cc1cccs1)C(=O)O; 3Thi = N[C@@H](Cc1ccsc1)C(=O)O; Cit = NC(=O)NCCC[C@H](N)C(=O)O; S8 = C=CCCCCCC[C@](C)(N)C(=O)O; hLeu = CC(C)CC[C@H](N)C(=O)O; hSer = N[C@@H](CCO)C(=O)O

Ac-[αAllylPro]D[tBuAla][B5(13)]DDAAFN[PyrS2][2Thi][Bta]H-NH2 (staple 1-4, 4-11) [I-779]: in [1], the EC50 was 5 nM. This molecule also gave an IC50 in experiment [2] of 5 nM.

In turn, Ac-[αAllylPro]D[tBuAla][B5(12)]DNAAFF[PyrS2][3Thi][Bta]Q-NH2 (staple 1-4, 4-11) [I-855] displayed an IC50 in [3] of 22 nM. The EC50 in experiment [4] amounted to 22 nM.

Take Ac-[αAllylPro]DA[B5(4)]DEAA[3Thi]Q[S8][Phe(3-F)][Bta]H-NH2 (staple 1-4, 4-11) [I-430]: the EC50 in experiment [5] is 154 nM. The IC50 in experiment [6] is 154 nM.

Consider Ac-[αAllylPro]DA[B5(4)]DEAAFN[S8]F[Bta]-NH2 (staple 1-4, 4-11) [I-432], for which the EC50 in [5] was found to be 145 nM. Besides, the IC50 in experiment [6] is 145 nM.

The molecule Ac-[αAllylPro]D[tBuAla][B5(13)]DDAAFN[SeN][3Thi][Bta]H-NH2 (staple 1-4, 4-11) [I-773] registered an EC50 in experiment [1] of 167 nM. The molecule further yielded an IC50 in [2] of 167 nM.

For Ac-[αAllylPro][Ala(1H-tetrazol-5-yl)]A[B5(3)]DEAAFQ[S8]F[Bta]Q-NH2 (staple 1-4, 4-11; also: staple isomer composition, earlier eluting HPLC peak) [I-416], in experiment [5], the EC50 is 5000 nM. In addition, the half-maximal inhibitory concentration (IC50) in [6] was 5000 nM.

On to Ac-[αAllylPro]DA[B5(4)]DEAA[3Thi]Q[S8][Phe(3-F)][Bta]Q-NH2 (staple 1-4, 4-11) [I-429], for which the 50% effective concentration (EC50) in experiment [5] is 146 nM. Also, the IC50 in experiment [6] worked out at 146 nM.

Consider Ac-[αAllylPro]D[tBuAla][B5]DDAAFN[PyrS2][1Nal][Bta]H-NH2 (staple 1-4, 4-11) [I-794], for which the EC50 in experiment [7] is 19 nM. The molecule also yielded an IC50 in experiment [8] of 19 nM.

The molecule Ac-[αAllylPro]D[tBuAla][B5(13)]DDAAFN[SeN][3Thi][Bta]H-NH2 (staple 1-4, 4-11) [I-774] gave an EC50 in experiment [1] of 38 nM. For the same molecule, in experiment [2], the IC50 came to 38 nM.

For the molecule Ac-[αAllylPro]D[tBuAla][B5(13)]DDAAFN[PyrS3][3Thi][Bta]H-NH2 (staple 1-4, 4-11) [I-776], the EC50 in experiment [1] was found to be 5 nM. Also, the IC50 in [2] is 5 nM.

Consider Ac-[αAllylPro]DA[B5(4)]DEAA[3Thi]Q[S8][Phe(3-F)][Bta]-NH2 (staple 1-4, 4-11) [I-431], for which the EC50 in experiment [5] worked out at 1320 nM. In experiment [6], the IC50 is 1320 nM.

Ac-[αAllylPro]D[hLeu][B5(5)]DDAAFN[PyrS2][3Thi][Bta]H-NH2 (staple 1-4, 4-11) [I-788]: in experiment [2], the IC50 was found to be 5 nM. For the same molecule, the EC50 in [7] turned out to be 5 nM.

Regarding Ac-[αAllylPro]DI[B5(3)]DEAA[2Thi]Q[S8][Phe(3-F)][Bta]Q-NH2 (staple 1-4, 4-11) [I-412], the EC50 in experiment [5] was found to be 92 nM. Besides, the concentration for half-maximal inhibition (IC50) in experiment [6] turned out to be 92 nM.

Ac-[αAllylPro]D[tBuAla][B5]DDAAFL[PyrS2][3Thi][Bta]H-NH2 (staple 1-4, 4-11) [I-802]: the EC50 in [7] turned out to be 6 nM. For the same molecule, in experiment [8], the IC50 is 6 nM.

Turning to Ac-[αAllylPro]DA[B5(3)]D[Ala(1H-tetrazol-5-yl)]AAFQ[S8]F[Bta]Q-NH2 (staple 1-4, 4-11) [I-413], the EC50 in experiment [5] was found to be 90 nM. In addition, the IC50 in experiment [6] worked out at 90 nM.

With Ac-[αAllylPro][Ala(1H-tetrazol-5-yl)]A[B5(3)]DEAAFQ[S8]F[Bta]Q-NH2 (staple 1-4, 4-11; also: staple isomer composition, later eluting HPLC peak) [I-417], in experiment [5], the EC50 worked out at 5000 nM. In addition, the IC50 in experiment [6] came out at 5000 nM.

On to Ac-[αAllylPro]DA[B5(4)]DEAAFQ[S8][3Thi][Bta]Q-NH2 (staple 1-4, 4-11; also: staple isomer composition, later-eluting HPLC peak) [I-427], for which the EC50 in [5] stood at 38.5 nM. The IC50 in experiment [6] was determined as 38.5 nM.

For the molecule Ac-[αAllylPro]D[tBuAla][B5(3)]DDAAF[hSer][PyrS2″][3Thi][Bta]H-NH2 (staple 1-4, 4-11) [I-804], the EC50 in [7] came to 5 nM. Besides, in experiment [8], the IC50 amounted to 5 nM.

For Ac-[αAllylPro]DA[B5(4)]DEAAFQ[S8][2Thi][Bta]Q-NH2 (staple 1-4, 4-11) [I-428], the EC50 in experiment [5] is 60 nM. Moreover, in experiment [6], the IC50 worked out at 60 nM.

Consider Ac-[αAllylPro]D[tBuAla][B5(3)]DDAAF[Cit][PyrS2″][3Thi][Bta]Q-NH2 (staple 1-4, 4-11) [I-805], for which, in [7], the concentration giving a half-maximal response (EC50) was found to be 5 nM. Besides, in experiment [8], the IC50 came out at 5 nM.

In experiment [9], Ac-[αAllylPro]D[tBuAla][B5(4)]DEAAFN[S8][3Thi][Bta]Q-NH2 (staple 1-4, 4-11; not fully specified) [I-682] showed an IC50 of 41 nM.

With Ac-[αAllylPro]D[tBuAla][B5(3)]DDAAF[Cit][PyrS2″][3Thi][Bta]H-NH2 (staple 1-4, 4-11) [I-806], the EC50 in experiment [7] was 5 nM. The IC50 in [8] came to 5 nM.

For Ac-[αAllylPro]D[tBuAla][B5]DDAAFN[PyrS2][2Nal][Bta]H-NH2 (staple 1-4, 4-11) [I-795], the EC50 in [7] turned out to be 176 nM. The same molecule yielded an IC50 in experiment [8] of 176 nM.

For the molecule Ac-[αAllylPro]D[tBuAla][B5(4)]DDAAFN[PyrS2][3Thi][Trp(5-Cl)]H-NH2 (staple 1-4, 4-11) [I-791], the IC50 in experiment [2] is 310 nM. The EC50 in experiment [7] turned out to be 310 nM.

B1: I-1019: Ac-PL3-Asp-Npg-B5-Asp-Asp-Ala-Ala-Phe-Ser-PyrS2-2C1F-BztA-Ser-NH2 (peptide)
peptide: Ac-[αAllylPro]D[tBuAla][B5(16)]DDAAFS[PyrS2″][Phe(2-Cl)][Bta]S-NH2
modifications: staple 1-4, 4-11; not fully specified; printed as Ac-PL3-Asp-Npg-B5-Asp-Asp-Ala-Ala-Phe-Ser-PyrS2-2C1F-BztA-Ser-NH2
For B1, the IC50 in experiment [8] was determined as 5 nM.

With Ac-[αAllylPro]D[tBuAla][B5(12)]DNAAFL[PyrS2][3Thi][Bta]Q-NH2 (staple 1-4, 4-11) [I-856], the IC50 in [3] was 17 nM. In experiment [4], this molecule registered an EC50 of 17 nM.

Ac-[αAllylPro]D[tBuAla][B5(5)]DDAAFN[PyrS2][3Thi][2Nal]H-NH2 (staple 1-4, 4-11) [I-790] displayed a half-maximal inhibitory concentration (IC50) in experiment [2] of 24 nM. In addition, the EC50 in [7] turned out to be 24 nM.

Take Ac-[αAllylPro]D[tBuAla][B5(13)]DDAAFN[PyrS2][Phe(2-Me)][Bta]H-NH2 (staple 1-4, 4-11) [I-782]: the IC50 in [2] worked out at 6 nM. Further, in [7], the EC50 was found to be 6 nM.

Regarding Ac-[αAllylPro]DA[B5(3)]DEAAFQ[S8][3Thi][Bta]Q-NH2 (staple 1-4, 4-11; also: staple isomer composition, earlier eluting HPLC peak) [I-426], in [5], the EC50 came to 109 nM. Besides, the IC50 in [6] was determined as 109 nM.

On to Ac-[αAllylPro]D[tBuAla][B5]DDAAFN[PyrS2][3Thi][Trp(6-Cl)]H-NH2 (staple 1-4, 4-11) [I-798], for which the EC50 in experiment [7] is 106 nM. The half-inhibitory concentration (IC50) in [8] is 106 nM.

As usually defined, the EC50 is the concentration giving half of the maximal effect. The IC50 is the concentration that inhibits the measured activity by half.
